Assay results: PMC7400623, “Effect of lysine side chain length on histone lysine acetyltransferase catalysis” (Scientific Reports, 2020)

Assays:
GCN5 (KAT2A) = molecular target: T1, GCN5 (KAT2A) (Homo sapiens, UniProt Q92830); assay: MALDI-TOF MS enzymatic assay of GCN5-catalyzed acetylation of histone peptides; assay type: biochemical; conditions: standard conditions: 2 µM GCN5, 100 µM peptide, 300 µM AcCoA, pH 8.0, 37 °C, 3 h; MALDI-TOF MS
T1 construct: Human GCN5 catalytic domain (residues 497–662 in pET28a-LIC vector); His-tag; host or cells: E. coli BL21(DE3)
T1 sequence (Q92830 497-662): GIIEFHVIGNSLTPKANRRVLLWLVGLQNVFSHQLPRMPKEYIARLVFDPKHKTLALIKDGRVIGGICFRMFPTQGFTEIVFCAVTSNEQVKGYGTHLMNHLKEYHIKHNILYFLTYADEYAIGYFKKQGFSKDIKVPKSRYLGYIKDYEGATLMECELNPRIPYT
Protocol: (§1) MALDI-TOF MS enzymatic assays were carried out to investigate KAT-catalyzed acetylation of synthetic histone peptides. The enzymatic activity of the recombinantly expressed human KATs was measured at different time points (2 µM KAT enzyme, 100 µM histone peptide, 300 µM AcCoA, buffer: 50 mM Hepes, 0.1 mM EDTA, 1 mM DTT, pH = 8.0, 37 °C, hereafter used as standard conditions) (Fig. 3b,c). […] As further control, H4 and H3 peptides containing stereochemically inverted D-lysine were synthesized.
(§2) The KAT enzymatic activity towards histone peptides was measured at different time points under standard conditions (2 µM KAT enzyme, 100 µM peptide, 300 µM AcCoA) in the reaction buffer (50 mM HEPES, 0.1 mM EDTA, 1 mM DTT, pH = 8.0). The reactions were carried out in a final volume of 50 µL and shaken up in a Thermomixer C at 750 rpm, at 37 °C. The reactions were quenched by the addition of TFA 10% in MilliQ water at different time points. All reactions were aliquoted and mixed 1:2 with a solution of α-Cyano-4-hydroxycinnamic acid (CHCCA) in 1:1 MQ and ACN (0.1% TFA) and loaded onto an MTP 384 polished steel target to be analyzed by a UltrafleXtreme-II tandem mass spectrometer (Bruker, Billerica, MA, USA).

PCAF (KAT2B) = molecular target: T2, PCAF (KAT2B) (Homo sapiens, UniProt Q92831); assay: MALDI-TOF MS enzymatic assay of PCAF-catalyzed acetylation of histone peptides; assay type: biochemical; conditions: standard conditions: 2 µM PCAF, 100 µM peptide, 300 µM AcCoA, pH 8.0, 37 °C, 3 h; MALDI-TOF MS
T2 construct: Human PCAF catalytic domain (residues 498–658 in pET16b vector); SNAP-tag; His-tag; made in house; host or cells: E. coli BL21(DE3)
T2 sequence (Q92831 498-658): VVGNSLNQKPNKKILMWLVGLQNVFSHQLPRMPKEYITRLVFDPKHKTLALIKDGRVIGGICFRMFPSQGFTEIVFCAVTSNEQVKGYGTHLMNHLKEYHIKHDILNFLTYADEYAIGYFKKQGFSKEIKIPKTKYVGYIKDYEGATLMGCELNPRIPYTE
Protocol: as §1, §2

[1] = molecular target: Human PCAF catalytic domain (residues 498-658) (human) (UniProt Q92831)
Human PCAF catalytic domain (residues 498-658) (human), sequence (Q92831 498-658): as above

[2] = molecular target: Human GCN5 catalytic domain (residues 497-662) (human) (UniProt Q92830)
Human GCN5 catalytic domain (residues 497-662) (human), sequence (Q92830 497-662): as the sequence (Q92830 497-662) above

[3] = molecular target: Human PCAF catalytic domain (residues 498-658) (human) (UniProt Q92831); remark: listed apart in the source

| Substance | IC50 of inhibition of PCAF-catalyzed acetylation of the H3K9 peptide (single point, 100 µM of each peptide, 1 h, 37 °C, MALDI-TOF MS; residual activity greater than 50%) [1] [µM] | IC50 of inhibition of GCN5-catalyzed acetylation of the H3K9 peptide (single point, 100 µM of each peptide, 1 h, 37 °C, MALDI-TOF MS; residual activity greater than 50%) [2] [µM] | IC50 of inhibition of PCAF-catalyzed acetylation of the H3K14 peptide (single point, 100 µM of each peptide, 1 h, 37 °C, MALDI-TOF MS; residual activity greater than 50%) [1] [µM] | IC50 of inhibition of GCN5-catalyzed acetylation of the H3K14 peptide (single point, 100 µM of each peptide, 1 h, 37 °C, MALDI-TOF MS; residual activity greater than 50%) [2] [µM] | other results |
| --- | --- | --- | --- | --- | --- |
| ARTKQTAR h3K9STGGK Ac A [H3h3K9, 15-mer histone H3 peptide (K14ac) with h3K at position 9] | – | – | – | – | substrate for GCN5-catalyzed acetylation (in words) (GCN5 (KAT2A)): No acetylation was observed within limits of detection; substrate for PCAF-catalyzed acetylation (in words) (PCAF (KAT2B)): No acetylation was observed within limits of detection |
| H3K*9 histone peptide containing Dab at position 9 (H3 residues 1-15, K14 acetylated) | > 100 | > 100 | – | – | – |
| H3K*9 histone peptide containing Orn at position 9 (H3 residues 1-15, K14 acetylated) | > 100 | > 100 | – | – | – |
| H3K*9 histone peptide containing h4K at position 9 (H3 residues 1-15, K14 acetylated) | > 100 | > 100 | – | – | – |
| H3K*14 histone peptide containing Dab at position 14 (H3 residues 3-17, K9 acetylated) | – | – | > 100 | > 100 | – |
| H3K*14 histone peptide containing Orn at position 14 (H3 residues 3-17, K9 acetylated) | – | – | > 100 | > 100 | – |
| H3K*14 histone peptide containing h4K at position 14 (H3 residues 3-17, K9 acetylated) | – | – | > 100 | > 100 | – |
| H3h2K9 histone peptide (H3 residues 1-15, K14 acetylated, h2K at position 9) | – | – | – | – | Km^app of PCAF-catalyzed acetylation (MALDI-TOF MS kinetics, steady state, saturating AcCoA, 37 °C, pH 7.4) [3]: 179 μM |
